Measurements as given in US20150246959A1 (US Dept. of Health and Human Services, published 2015).
Numbering of substitutions follows the chain as printed. Numbers in names are those of the source. Blank lines part the entries; values can stand above or below the binder they belong to.

Target: MAGE-A3 full-length protein processed and presented by HLA-DP4 on cells (human)
Test: cell-based or functional assay

MAGE-A3 full-length protein processed and presented by HLA-DP4 on cells (human), sequence (P20036 29-260, chain 1 of 2): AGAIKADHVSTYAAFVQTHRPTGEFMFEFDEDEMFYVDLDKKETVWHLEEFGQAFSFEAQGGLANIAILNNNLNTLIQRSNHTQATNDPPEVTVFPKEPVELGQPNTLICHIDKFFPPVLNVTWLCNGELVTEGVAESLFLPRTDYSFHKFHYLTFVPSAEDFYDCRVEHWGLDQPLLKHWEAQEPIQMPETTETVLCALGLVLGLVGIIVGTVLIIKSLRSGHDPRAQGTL
MAGE-A3 full-length protein processed and presented by HLA-DP4 on cells (human), sequence (P43357 whole entry, chain 2 of 2, further chain): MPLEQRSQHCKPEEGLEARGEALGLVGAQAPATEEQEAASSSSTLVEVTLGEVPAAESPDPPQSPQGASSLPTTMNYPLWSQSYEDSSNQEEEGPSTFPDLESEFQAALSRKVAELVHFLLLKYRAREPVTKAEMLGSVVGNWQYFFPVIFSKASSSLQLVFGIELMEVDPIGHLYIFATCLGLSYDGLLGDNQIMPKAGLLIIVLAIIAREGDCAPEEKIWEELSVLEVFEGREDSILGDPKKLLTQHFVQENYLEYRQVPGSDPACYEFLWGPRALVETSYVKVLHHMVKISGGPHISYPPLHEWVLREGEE

fold increase in anti-tumor activity (IFN-gamma) against wt 6F9 TCR, CD4+ enriched PBL: ~2 fold
B1: a1 substituted 6F9 TCR (alpha chain S116A) (TCR, V domains shown)
V domain 1: QTVTQSQPEMSVQEAETVTLSCTYDTSESDYYLFWYKQPPSRQMILVIRQEAYKQQNATENRFSVNFQKAAKSFSLKISDSQLGDAAMYFCALRASGTYKYIFGTGTRLKVLA
V domain 2: GAGVSQSPSNKVTEKGKDVELRCDPISGHTALYWYRQSLGQGLEFLIYFQGNSAPDKSGLPSDRFSAERTGGSVSTLTIQRTQQEDSAVYLCASIRTGPFFSGNTIYFGEGSWLTVVE

fold increase in anti-tumor activity (IFN-gamma) against wt 6F9 TCR, CD4+ enriched PBL: ~2 fold
B2: a2 substituted 6F9 TCR (alpha chain S117A) (TCR, V domains shown)
V domain 1: B1 V domain 1 with A95S, S96A
V domain 2: B1 V domain 2
